Experimental data reported in patent US20050282743A1, “Molecular interactions in cells” (Arbor Vita Corporation, priority 2001, published 2005).
Several values for one entry are separate records, joined by “and”; a condition that tells them apart may be missing. Equal entries are not always repeated.

What was measured:
[1] = target: T1, GST-MUPP1 PDZ domain 9 (Homo sapiens (Human)), O75970; assay: G' assay; also: key of the grades not given here
T1 chain: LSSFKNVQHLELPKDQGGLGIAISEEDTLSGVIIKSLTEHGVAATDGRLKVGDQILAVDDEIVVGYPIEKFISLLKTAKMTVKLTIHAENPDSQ

[2] = target: T2, GST-novel PDZ gene PDZ domain 2 (Homo sapiens (Human)), Q9H5P4; assay: G' assay; also: key of the grades not given here
T2 chain: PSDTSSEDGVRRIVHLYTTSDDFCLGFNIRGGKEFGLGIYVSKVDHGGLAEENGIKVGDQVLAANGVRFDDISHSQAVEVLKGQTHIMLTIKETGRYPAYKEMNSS

[3] = target: T3, GST-PDZ-73 PDZ domain 2 (Homo sapiens (Human)), Q9Y6N9; assay: G' assay; also: key of the grades not given here
T3 chain: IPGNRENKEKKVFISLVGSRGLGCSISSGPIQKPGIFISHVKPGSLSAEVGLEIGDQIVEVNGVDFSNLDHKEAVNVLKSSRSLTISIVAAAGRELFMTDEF

[4] = target: T4, GST-TIAM 2 PDZ domain 1 (Homo sapiens (Human)), Q8IVF5; assay: G' assay; also: key of the grades not given here
T4 chain: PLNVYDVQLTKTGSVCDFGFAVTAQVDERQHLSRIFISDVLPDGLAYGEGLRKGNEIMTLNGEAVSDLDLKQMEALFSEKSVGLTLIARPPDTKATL

[5] = target: T5, GST-MUPP1 PDZ domain 12 (Homo sapiens (Human)), O75970; assay: G' assay; also: key of the grades not given here
T5 chain: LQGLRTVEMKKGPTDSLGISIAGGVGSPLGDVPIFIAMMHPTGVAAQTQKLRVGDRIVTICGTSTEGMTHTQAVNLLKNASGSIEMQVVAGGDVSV

[6] = target: T6, GST-KIAA0303 PDZ domain 1 (Homo sapiens (Human)), O15021; assay: G' assay; also: key of the grades not given here
T6 chain: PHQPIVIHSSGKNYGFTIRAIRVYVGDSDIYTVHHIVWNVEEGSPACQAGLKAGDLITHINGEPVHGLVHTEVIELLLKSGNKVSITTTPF

[7] = target: T7, GST-TIP-1 (Example 3) (human), O14907; assay: G assay titration, PDZ 0.1 ug/ml
T7 chain: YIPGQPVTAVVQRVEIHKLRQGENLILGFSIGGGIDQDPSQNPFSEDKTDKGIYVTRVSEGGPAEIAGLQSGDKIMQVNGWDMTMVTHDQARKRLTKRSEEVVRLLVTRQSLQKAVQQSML

[8] = target: GST-DLG1 PDZ domains 1, 2 (Homo sapiens), Q12959; assay: G assay titration, PDZ 0.1 ug/ml
[9] = target: T8, GST-PSD95 PDZ domain 2 (Homo sapiens); assay: G' assay; also: key of the grades not given here
T8 chain: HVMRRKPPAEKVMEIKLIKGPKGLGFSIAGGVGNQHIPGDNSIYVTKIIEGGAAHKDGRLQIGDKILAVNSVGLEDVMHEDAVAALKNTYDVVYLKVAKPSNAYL

[10] = target: T9, GST-KIAA0751(L) PDZ domain 1 (Mus musculus (Mouse)), Q9EQZ7; assay: G' assay; also: key of the grades not given here
T9 chain: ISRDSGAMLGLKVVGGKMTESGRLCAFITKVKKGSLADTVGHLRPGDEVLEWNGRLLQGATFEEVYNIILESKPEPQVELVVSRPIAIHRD

[11] = target: T10, GST-FLJ21687 PDZ domain 1 (Homo sapiens (Human)), Q9H6Y5; assay: G' assay; also: key of the grades not given here
T10 chain: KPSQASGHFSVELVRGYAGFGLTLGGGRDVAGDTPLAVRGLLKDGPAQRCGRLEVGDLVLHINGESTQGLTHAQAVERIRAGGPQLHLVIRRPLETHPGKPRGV

[12] = target: T11, GST-INADL PDZ domain 4 (Homo sapiens (Human)), Q8NI35; assay: G' assay; also: key of the grades not given here
T11 chain: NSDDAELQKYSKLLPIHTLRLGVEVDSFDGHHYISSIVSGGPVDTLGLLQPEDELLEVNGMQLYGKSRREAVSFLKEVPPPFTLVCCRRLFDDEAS

[13] = target: T12, GST-DLG1 PDZ domain 3 (Homo sapiens), Q12959; assay: G' assay; also: key of the grades not given here
T12 chain: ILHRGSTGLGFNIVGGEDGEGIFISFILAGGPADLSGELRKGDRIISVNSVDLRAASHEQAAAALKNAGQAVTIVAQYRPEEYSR

[14] = target: T13, GST-PDZK1 PDZ domain 3 (Homo sapiens (Human)), A8MUH7; assay: G' assay; also: key of the grades not given here
T13 chain: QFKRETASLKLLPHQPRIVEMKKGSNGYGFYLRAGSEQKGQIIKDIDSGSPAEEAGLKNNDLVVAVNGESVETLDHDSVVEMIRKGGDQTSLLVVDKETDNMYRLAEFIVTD

[15] = target: T14, GST-AIPC PDZ domain 3 (Homo sapiens (Human)), O15018; assay: G' assay; also: key of the grades not given here
T14 chain: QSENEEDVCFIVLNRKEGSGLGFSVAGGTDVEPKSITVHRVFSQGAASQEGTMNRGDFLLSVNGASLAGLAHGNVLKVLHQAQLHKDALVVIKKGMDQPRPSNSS

[16] = target: T15, GST-SYNTENIN PDZ domain 2 (Homo sapiens (Human)), O00560; assay: G' assay; also: key of the grades not given here
T15 chain: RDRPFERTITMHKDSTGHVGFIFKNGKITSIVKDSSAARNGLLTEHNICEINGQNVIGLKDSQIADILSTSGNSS

[17] = target: T16, GST-prIL16 PDZ domains 1, 2, Q14005; assay: G' assay; also: key of the grades not given here
T16 chain: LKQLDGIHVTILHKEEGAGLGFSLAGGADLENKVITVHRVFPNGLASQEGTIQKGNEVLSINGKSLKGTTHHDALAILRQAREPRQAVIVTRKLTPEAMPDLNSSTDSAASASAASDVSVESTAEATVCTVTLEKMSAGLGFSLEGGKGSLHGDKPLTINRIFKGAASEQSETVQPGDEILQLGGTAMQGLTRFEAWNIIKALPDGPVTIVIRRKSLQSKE

[18] = target: T17, GST-PDZK1 PDZ domain 1 (Homo sapiens (Human)), Q5T2W1; assay: G' assay; also: key of the grades not given here
T17 chain: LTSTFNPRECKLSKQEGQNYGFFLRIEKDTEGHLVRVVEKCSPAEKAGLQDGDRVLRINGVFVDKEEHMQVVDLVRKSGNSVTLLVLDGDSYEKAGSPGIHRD

Binder: KTMPAAMYRLLTAQEQPVYI (modifications not checked) [MINT-1]
- Classification [1]: 3 A450 class

Binder: PIPAGGCTFSGIFPTLTSPL (modifications not checked) [KIA 1481]
- Classification [2]: 1 A450 class
- Classification [3]: 1 A450 class

Binder: ELLQFCRTPNPALKNGQYWV (modifications not checked) [CSPG4 (chondroitin sulfae proteoglycan 4, melanoma-associated)]
- Classification [4]: 3 A450 class
- Classification [5]: 1 A450 class
- Classification [6]: 1 A450 class

Binder: QISPGGLEPPSEKHFRETEV (modifications not checked) [TAX]
- Kd [7]: 5 nM and 6 nM
- maximum OD (450 nm) [7]: 3.3 OD and 2.1 OD
- Kd [8]: 200 nM and 130 nM
- maximum OD (450 nm) [8]: 1.6 OD and 3.4 OD
- Classification [9]: 1 A450 class

Binder: HDFRRAFKKILARGDRKRIV (modifications not checked) [alpha-2A Adrenergic receptor]
- Classification [10]: 3 A450 class
- Classification [11]: 1 A450 class
- Classification [12]: 1 A450 class

Binder: ILNSIQVMRAQMNQIQSVEV (modifications not checked) [ephrin B2]
- Classification [13]: 1 A450 class
- Classification [14]: 1 A450 class
- Classification [15]: 1 A450 class
- Classification [16]: 2 A450 class
- Classification [17]: 2 A450 class
- Classification [18]: 1 A450 class
